Here are results for 22 variants from the supplement of paper PMC7125110.

B1: glmS ribozyme (parent)
chain: AUAAAAGCGCCAGAACUACAGAAAUGUAGUUGACGAGGAGGAGGUUUAUCGAAUUUUCGGCGGAUGCCUCCAAA

What all share (details): with glucosamine-6-phosphate
Variants of B1 are the subject of data set [1]. Briefly: self-cleavage kobs at 40 uM GlcN6P; higher = faster cleavage; RNA array. In short, it runs like this:
(§1)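 Barcoded ribozyme variants, transcribed in situ by E. coli RNA polymerase on sequenced MiSeq chips, were followed via a hybridised Cy3 probe at 37 °C. Glucosamine-6-phosphate ranged from 40 μM to 10 mM in HEPES/KCl/Mg(OAc)2 buffer. kobs came from decay fits to per-tile medians, and kcat and KM from weighted Michaelis–Menten fits.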

Variants of B1 are the subject of data set [2]. Briefly: self-cleavage kobs at 160 uM GlcN6P; higher = faster cleavage; RNA array. In short, it runs like this:
as §1

Data set [3] covers variants of B1. Briefly: self-cleavage kobs at 640 uM GlcN6P; higher = faster cleavage; RNA array. The procedure, abridged: as §1
Variants of B1 are the subject of data set [4]. Briefly: self-cleavage kobs at 2500 uM GlcN6P; higher = faster cleavage; RNA array. In short, it runs like this:
as §1

In data set [5] the parent is B1. Briefly: self-cleavage kobs at 10000 uM GlcN6P; higher = faster cleavage; RNA array. In short, it runs like this: as §1

± gives the standard error. Variants at the floor of the assay were thinned out. Bounds are passed on as bounds.

For the variant G40C G59U C68A C71A, the “self-cleavage kobs at 40 uM GlcN6P” value with glucosamine-6-phosphate [1] is less than 1e-05 s⁻¹.
Regarding G44U C58G, the “self-cleavage kobs at 40 uM GlcN6P” value with glucosamine-6-phosphate [1] is less than 1e-05 s⁻¹. In the data set with glucosamine-6-phosphate [2], the “self-cleavage kobs at 160 uM GlcN6P” value was less than 1e-05 s⁻¹. The “self-cleavage kobs at 640 uM GlcN6P” value in the data set with glucosamine-6-phosphate [3] is less than 1e-05 s⁻¹. Further, the “self-cleavage kobs at 2500 uM GlcN6P” value with glucosamine-6-phosphate [4] is less than 1e-05 s⁻¹. Also, the “self-cleavage kobs at 10000 uM GlcN6P” value with glucosamine-6-phosphate [5] was less than 1e-05 s⁻¹.
For the variant G13A A15G C16G G32U A42C U46A U57A C68U, the “self-cleavage kobs at 40 uM GlcN6P” value in the data set with glucosamine-6-phosphate [1] is less than 1e-05 s⁻¹.
Take C10A C11U: in the data set with glucosamine-6-phosphate [1], the “self-cleavage kobs at 40 uM GlcN6P” value was less than 1e-05 s⁻¹. For the same variant, the “self-cleavage kobs at 160 uM GlcN6P” value with glucosamine-6-phosphate [2] is less than 1e-05 s⁻¹. Besides, the “self-cleavage kobs at 2500 uM GlcN6P” value with glucosamine-6-phosphate [4] was less than 1e-05 s⁻¹. In addition, the “self-cleavage kobs at 10000 uM GlcN6P” value with glucosamine-6-phosphate [5] was less than 1e-05 s⁻¹.
With G43A G51U, the “self-cleavage kobs at 40 uM GlcN6P” value in the data set with glucosamine-6-phosphate [1] was less than 1e-05 s⁻¹. In addition, the “self-cleavage kobs at 160 uM GlcN6P” value with glucosamine-6-phosphate [2] was less than 1e-05 s⁻¹. Besides, the “self-cleavage kobs at 2500 uM GlcN6P” value with glucosamine-6-phosphate [4] was less than 1e-05 s⁻¹.
As to G40U U45G C67U, the “self-cleavage kobs at 40 uM GlcN6P” value with glucosamine-6-phosphate [1] is less than 1e-05 s⁻¹. The “self-cleavage kobs at 160 uM GlcN6P” value in the data set with glucosamine-6-phosphate [2] was less than 1e-05 s⁻¹. The “self-cleavage kobs at 10000 uM GlcN6P” value with glucosamine-6-phosphate [5] amounted to 5.49e-05 ± 1.2e-05 s⁻¹.
With U56C C61U C70A C71U, the “self-cleavage kobs at 40 uM GlcN6P” value with glucosamine-6-phosphate [1] is less than 1e-05 s⁻¹. For the same variant, the “self-cleavage kobs at 2500 uM GlcN6P” value in the data set with glucosamine-6-phosphate [4] is less than 1e-05 s⁻¹.
As to G35C A52C, the “self-cleavage kobs at 40 uM GlcN6P” value with glucosamine-6-phosphate [1] is less than 1e-05 s⁻¹. In the data set with glucosamine-6-phosphate [2], the “self-cleavage kobs at 160 uM GlcN6P” value is less than 1e-05 s⁻¹. The “self-cleavage kobs at 640 uM GlcN6P” value in the data set with glucosamine-6-phosphate [3] is less than 1e-05 s⁻¹. The “self-cleavage kobs at 2500 uM GlcN6P” value with glucosamine-6-phosphate [4] was less than 1e-05 s⁻¹. In addition, the “self-cleavage kobs at 10000 uM GlcN6P” value with glucosamine-6-phosphate [5] was less than 1e-05 s⁻¹.
As to C11A G29U G59U, the “self-cleavage kobs at 40 uM GlcN6P” value with glucosamine-6-phosphate [1] amounted to 0.000103 ± 2.9e-05 s⁻¹.
For A42G G60A C70G, the “self-cleavage kobs at 40 uM GlcN6P” value with glucosamine-6-phosphate [1] was less than 1e-05 s⁻¹.
In the case of C11A A36U G62C C71G, the “self-cleavage kobs at 40 uM GlcN6P” value with glucosamine-6-phosphate [1] was less than 1e-05 s⁻¹. For the same variant, in the data set with glucosamine-6-phosphate [2], the “self-cleavage kobs at 160 uM GlcN6P” value is less than 1e-05 s⁻¹. Also, in the data set with glucosamine-6-phosphate [5], the “self-cleavage kobs at 10000 uM GlcN6P” value is less than 1e-05 s⁻¹.
For A14G U56C G59U, the “self-cleavage kobs at 40 uM GlcN6P” value in the data set with glucosamine-6-phosphate [1] was less than 1e-05 s⁻¹. Also, in the data set with glucosamine-6-phosphate [5], the “self-cleavage kobs at 10000 uM GlcN6P” value turned out to be 2.7e-05 ± 1.3e-05 s⁻¹.
Turning to G51A U55A C58G, the “self-cleavage kobs at 40 uM GlcN6P” value in the data set with glucosamine-6-phosphate [1] was less than 1e-05 s⁻¹. Besides, in the data set with glucosamine-6-phosphate [5], the “self-cleavage kobs at 10000 uM GlcN6P” value is less than 1e-05 s⁻¹.
For the variant A6C G41U U65A, the “self-cleavage kobs at 40 uM GlcN6P” value in the data set with glucosamine-6-phosphate [1] was less than 1e-05 s⁻¹.
As to C34G A39C U46G, the “self-cleavage kobs at 40 uM GlcN6P” value with glucosamine-6-phosphate [1] is less than 1e-05 s⁻¹. The “self-cleavage kobs at 160 uM GlcN6P” value with glucosamine-6-phosphate [2] was less than 1e-05 s⁻¹. The “self-cleavage kobs at 2500 uM GlcN6P” value with glucosamine-6-phosphate [4] is less than 1e-05 s⁻¹. Also, in the data set with glucosamine-6-phosphate [5], the “self-cleavage kobs at 10000 uM GlcN6P” value is less than 1e-05 s⁻¹.
Regarding C10A A48G, the “self-cleavage kobs at 40 uM GlcN6P” value with glucosamine-6-phosphate [1] is less than 1e-05 s⁻¹. Further, in the data set with glucosamine-6-phosphate [2], the “self-cleavage kobs at 160 uM GlcN6P” value is less than 1e-05 s⁻¹. Moreover, the “self-cleavage kobs at 640 uM GlcN6P” value in the data set with glucosamine-6-phosphate [3] is less than 1e-05 s⁻¹. In the data set with glucosamine-6-phosphate [5], the “self-cleavage kobs at 10000 uM GlcN6P” value is less than 1e-05 s⁻¹.
Turning to C10U A14C C61U, the “self-cleavage kobs at 40 uM GlcN6P” value with glucosamine-6-phosphate [1] was less than 1e-05 s⁻¹. In addition, in the data set with glucosamine-6-phosphate [5], the “self-cleavage kobs at 10000 uM GlcN6P” value is less than 1e-05 s⁻¹.
For A14G G29A, the “self-cleavage kobs at 40 uM GlcN6P” value with glucosamine-6-phosphate [1] turned out to be 0.000403 ± 6.2e-05 s⁻¹. For the same variant, the “self-cleavage kobs at 640 uM GlcN6P” value in the data set with glucosamine-6-phosphate [3] was found to be 0.00394 ± 0.00079 s⁻¹. For the same variant, the “self-cleavage kobs at 2500 uM GlcN6P” value with glucosamine-6-phosphate [4] is 0.00353 ± 0.00081 s⁻¹. Also, the “self-cleavage kobs at 10000 uM GlcN6P” value in the data set with glucosamine-6-phosphate [5] worked out at 0.0317 ± 0.0076 s⁻¹.
Regarding C10A C11U A36U C70U C71G, the “self-cleavage kobs at 40 uM GlcN6P” value with glucosamine-6-phosphate [1] was found to be 0.000371 ± 9.5e-05 s⁻¹. The “self-cleavage kobs at 640 uM GlcN6P” value in the data set with glucosamine-6-phosphate [3] was determined as 0.000527 ± 0.00015 s⁻¹. Besides, in the data set with glucosamine-6-phosphate [5], the “self-cleavage kobs at 10000 uM GlcN6P” value was found to be 0.000335 ± 6.3e-05 s⁻¹.
As to A12C G62U, in the data set with glucosamine-6-phosphate [1], the “self-cleavage kobs at 40 uM GlcN6P” value was less than 1e-05 s⁻¹. For the same variant, in the data set with glucosamine-6-phosphate [2], the “self-cleavage kobs at 160 uM GlcN6P” value was less than 1e-05 s⁻¹. For the same variant, in the data set with glucosamine-6-phosphate [3], the “self-cleavage kobs at 640 uM GlcN6P” value was less than 1e-05 s⁻¹. The “self-cleavage kobs at 2500 uM GlcN6P” value with glucosamine-6-phosphate [4] is less than 1e-05 s⁻¹. Also, the “self-cleavage kobs at 10000 uM GlcN6P” value with glucosamine-6-phosphate [5] was less than 1e-05 s⁻¹.
As for A12C C71A, in the data set with glucosamine-6-phosphate [1], the “self-cleavage kobs at 40 uM GlcN6P” value turned out to be 6.84e-05 ± 9.7e-06 s⁻¹. In the data set with glucosamine-6-phosphate [3], the “self-cleavage kobs at 640 uM GlcN6P” value was 0.000423 ± 6.6e-05 s⁻¹. The “self-cleavage kobs at 2500 uM GlcN6P” value with glucosamine-6-phosphate [4] is 0.00201 ± 0.0003 s⁻¹. The “self-cleavage kobs at 10000 uM GlcN6P” value with glucosamine-6-phosphate [5] was 0.00229 ± 0.00033 s⁻¹.
Turning to A15U G44C U56C, in the data set with glucosamine-6-phosphate [1], the “self-cleavage kobs at 40 uM GlcN6P” value was less than 1e-05 s⁻¹. For the same variant, the “self-cleavage kobs at 160 uM GlcN6P” value with glucosamine-6-phosphate [2] is less than 1e-05 s⁻¹. Further, the “self-cleavage kobs at 640 uM GlcN6P” value with glucosamine-6-phosphate [3] is less than 1e-05 s⁻¹. Moreover, the “self-cleavage kobs at 2500 uM GlcN6P” value with glucosamine-6-phosphate [4] was less than 1e-05 s⁻¹. Also, the “self-cleavage kobs at 10000 uM GlcN6P” value with glucosamine-6-phosphate [5] was less than 1e-05 s⁻¹.
